Measurements taken from PMC10500007, “De novo design of highly selective miniprotein inhibitors of integrins αvβ6 and αvβ8” (Nature Communications, 2023).

Legend:
[1] = target: T1, B8_BP_dslf; assay: BLI; Octet RED96; His-tagged and Avi-tagged minibinders immobilised on Ni-NTA and streptavidin sensor tips, dipped into wells with different concentrations of integrin; association 900 s, dissociation 1200 s; conditions: both partners purified
T1 construct: de novo designed RGD miniprotein with redesigned, extended β-loop and the motif MAVY in place of LXX(L/I); For BLI His-tagged (Ni-NTA tips) or N-terminally Avi-tagged, biotinylated (streptavidin tips); The methods of model building name a design model 'B8_BP2_dslf'; also called MAVY; source: E. coli BL21(DE3*), purified (Ni-NTA, SEC); not shown: His tag, C-terminal, kept

[2] = target: T2, B8_BP-LATY; assay: as above; conditions: both partners purified
T2 construct: positions 13-16 worked out from the printed Y16; source: E. coli BL21(DE3*), purified (Ni-NTA, SEC); not shown: His tag, C-terminal, kept
T2 sequence (main, as listed by the source): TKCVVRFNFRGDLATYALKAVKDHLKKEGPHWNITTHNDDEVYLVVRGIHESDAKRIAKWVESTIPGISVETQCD

B1: human integrin αvβ8 (soluble, construct not stated) (complex)
chain 1: FNLDVDSPAEYSGPEGSYFGFAVDFFVPSASSRMFLLVGAPKANTTQPGIVEGGQVLKCDWSSTRRCQPIEFDATGNRDYAKDDPLEFKSHQWFGASVRSKQDKILACAPLYHWRTEMKQEREPVGTCFLQDGTKTVEYAPCRSQDIDADGQGFCQGGFSIDFTKADRVLLGGPGSFYWQGQLISDQVAEIVSKYDPNVYSIKYNNQLATRTAQAIFDDSYLGYSVAVGDFNGDGIDDFVSGVPRAARTLGMVYIYDGKNMSSLYNFTGEQMAAYFGFSVAATDINGDDYADVFIGAPLFMDRGSDGKLQEVGQVSVSLQRASGDFQTTKLNGFEVFARFGSAIAPLGDLDQDGFNDIAIAAPYGGEDKKGIVYIFNGRSTGLNAVPSQILEGQWAARSGCPPSFGYSMKGATDIDKNGYPDLIVGAFGVDRAILYRARPVITVNAGLEVYPSILNQDNKTCSLPGTALKVSCFNVRFCLKADGKGVLPRKLNFQVELLLDKLKQKGAIRRALFLYSRSPSHSKNMTISRGGLMQCEELIAYLRDESEFRDKLTPITIFMEYRLDYRTAADTTGLQPILNQFTPANISRQAHILL
chain 2: EDNRCASSNAASCARCLALGPECGWCVQEDFISGGSRSERCDIVSNLISKGCSVDSIEYPSVHVIIPTENEINTQVTPGEVSIQLRPGAEANFMLKVHPLKKYPVDLYYLVDVSASMHNNIEKLNSVGNDLSRKMAFFSRDFRLGFGSYVDKTVSPYISIHPERIHNQCSDYNLDCMPPHGYIHVLSLTENITEFEKAVHRQKISGNIDTPEGGFDAMLQAAVCESHIGWRKEAKRLLLVMTDQTSHLALDSKLAGIVCPNDGNCHLKNNVYVKSTTMEHPSLGQLSEKLIDNNINVIFAVQGKQFHWYKDLLPLLPGTIAGEIESKAANLNNLVVEAYQKLISEVKVQVENQVQGIYFNITAICPDGSRKPGMEGCRNVTSNDEVLFNVTVTMKKCDVTGGKNYAIIKPIGFNETAKIHI
- Kd [1]: 1.9 nM
- Kd [2]: 0.5 nM
